In the supplement of paper PMC7125110:
± gives the standard error. For part of these data: This sample holds only a part of the variants without activity.

B1: glmS ribozyme (parent)
chain: AUAAAAGCGCCAGAACUACAGAAAUGUAGUUGACGAGGAGGAGGUUUAUCGAAUUUUCGGCGGAUGCCUCCAAA

Columns and labels:
Conditions in all cases: with glucosamine-6-phosphate
glucosamine-6-phosphate [1] = variants of: B1; assay: kcat; higher = faster cleavage; RNA array
Procedure, shortened: (§1)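 kcat and KM were obtained from weighted Michaelis–Menten fits across concentrations of kobs values. Those came from one- or two-exponential decay fits to per-tile medians normalised to baseline and to non-cleaving reference variants. The variants were barcoded ribozymes transcribed in situ by E. coli RNA polymerase on sequenced MiSeq chips and tracked through a hybridised Cy3 probe at 37 °C, with 40 μM to 10 mM glucosamine-6-phosphate in HEPES/KCl/Mg(OAc)2 buffer flowed in.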

glucosamine-6-phosphate [2] = variants of: B1; assay: self-cleavage kobs at 40 uM GlcN6P; higher = faster cleavage; RNA array
Procedure, shortened: as §1

glucosamine-6-phosphate [3] = variants of: B1; assay: KM; higher = weaker cofactor use; RNA array
Procedure, shortened: as §1

glucosamine-6-phosphate [4] = variants of: B1; assay: self-cleavage kobs at 160 uM GlcN6P; higher = faster cleavage; RNA array
Procedure, shortened: as §1

glucosamine-6-phosphate [5] = variants of: B1; assay: self-cleavage kobs at 640 uM GlcN6P; higher = faster cleavage; RNA array
Procedure, shortened: as §1

glucosamine-6-phosphate [6] = variants of: B1; assay: self-cleavage kobs at 2500 uM GlcN6P; higher = faster cleavage; RNA array
Procedure, shortened: as §1

glucosamine-6-phosphate [7] = variants of: B1; assay: self-cleavage kobs at 10000 uM GlcN6P; higher = faster cleavage; RNA array
Procedure, shortened: as §1

Variant	kcat (glucosamine-6-phosphate [1]) [s⁻¹]	self-cleavage kobs at 40 uM GlcN6P (glucosamine-6-phosphate [2]) [s⁻¹]	KM (glucosamine-6-phosphate [3]) [µM]	self-cleavage kobs at 160 uM GlcN6P (glucosamine-6-phosphate [4]) [s⁻¹]	self-cleavage kobs at 640 uM GlcN6P (glucosamine-6-phosphate [5]) [s⁻¹]	self-cleavage kobs at 2500 uM GlcN6P (glucosamine-6-phosphate [6]) [s⁻¹]	self-cleavage kobs at 10000 uM GlcN6P (glucosamine-6-phosphate [7]) [s⁻¹]
AUAAAAGCGCCAGAACUACAGAAAUGUAGUUGUCGAGGAGGAGGUUUAACGAAUUUUUGGCGGAUGCCUCCAAA	< 1e-05	< 1e-05	–	–	–	–	–
AUAAAAGCGCCAGAACUACAGAAAUGUAGUUGACGAGGAGGAGGUUUAUCGAAUUUUCGGCGGAUGUUUCCAAA	0.000115 ± 7.3e-06	–	293 ± 85	3.97e-05 ± 8.6e-06	7.85e-05 ± 9.1e-06	0.000124 ± 1.3e-05	0.000107 ± 7.4e-06
AUAAAAGCGCCAGAACUACAGAAAUGUAGUUGACGAGGAGUAGGUUUAUCGAAUUUUCGGCGGAUGCCUCCAAA	0.00376 ± 0.0013	0.000171 ± 1.9e-05	–	0.000391 ± 6.3e-05	0.00102 ± 9.3e-05	0.00263 ± 0.00015	–
AUAAAAGCCCCAGAACUACAGAAAUGUAGUUGACGAGGAGGAGGUUUAUCGAAUUUUCGGGGGAUGCCUCCAAA	0.00838 ± 0.0021	9.12e-05 ± 1.6e-05	4330 ± 1400	0.000309 ± 5.7e-05	0.000828 ± 0.00017	0.00371 ± 0.00066	0.00575 ± 0.00085
AUAAAAGCGCCAGAACUACAGAAAUGUAGUUGACGAGGAGGGGGUUUAUCGAAUUUUCGGCGGAAGCCUCCAAA	0.00459 ± 0.0018	0.000318 ± 9.9e-05	–	0.000409 ± 8.8e-05	0.00121 ± 0.00028	0.00291 ± 0.00077	0.00423 ± 0.0014
AUAAAAGCGCCAGAACUACAGAAAUGUAGUUGACGAGCAGGAGGUUUAGCGAAUUUUCGGCGGAUGCAUCCAAA	1.34e-05 ± 4.6e-06	–	–	–	–	–	–
AUAAAAGCGCCAGAACUACAGAAAUGUAGUUAACGAGGACGAGGUUUAUCGAAUUUUCGGCGGAUGCCUCCAAA	0.00047 ± 8.1e-05	–	5730 ± 1600	–	5.53e-05 ± 9.2e-06	0.000126 ± 1.8e-05	0.000309 ± 3.3e-05
AUAAAAGCGCCAGAACUACAGAAAUGUAGUUGACGAGGAGGAGGUUUAUCGACUUUUCGGCGGAAGCCUAAAAA	1.25e-05 ± 4e-06	–	–	–	–	–	–
AUAAAAGCGCCAGAACUACAGAAAUGUAGUUGACGAGGAGGAGGUGUGUCGAAUUUUCGGCGGAUGCCUCCAAA	7.99e-05 ± 1e-06	< 1e-05	1250 ± 69	–	–	5.4e-05 ± 1.2e-05	7.08e-05 ± 1e-05
AUAAAAGCGCCAGAACUACAGAAAUGUAGUUGACGAGGAGGAGGUUUAUCGACUUUUCGACGGAUGCCUCCAAA	2.08e-05 ± 2.9e-06	< 1e-05	7110 ± 2300	< 1e-05	–	–	–
AUAAAAGCGCCAGAUCUACAGAAAUGUAGUUGCCGAGGAGGAGGUUUAUCGAAUUUUCGGCGGAUGCCUCCAAA	5.35e-05 ± 2.5e-06	< 1e-05	813 ± 280	–	–	4.34e-05 ± 1.3e-05	4.91e-05 ± 6e-06
AUAAAAGCGCCAGAACUACAGAAAUGUAGAUGACGAGGAGGAGGUAUAUCGAAUUUUCGGCGGAUGCCUCCAAA	0.00042 ± 5.2e-05	–	–	–	–	0.000372 ± 0.0001	0.000363 ± 5.1e-05
AUAAAAGCGCCAGAACUACAGAAAUGUAGUUGACGAUGAGGAGGUUUAUCGAAUUUUCGGCGGAGGCCUCCAAA	< 1e-05	< 1e-05	1260 ± 500	< 1e-05	< 1e-05	–	–
AUAAAAGCGCCAGAACUACAGAAAUGUAGUUGACGAGGAGGAGGAUUAUCGAAUUUUCGGCGGAUGCCGCCAAA	6.38e-05 ± 2e-05	–	–	–	5.46e-05 ± 1.9e-05	0.000109 ± 3.2e-05	–
AUAAAAGCGCCAGAACUACAGAAAUGUAGUUGCCGAGGAGGAGGUUUAUCGAAUUUUCGGCGGAAGCCUCCAAA	4.76e-05 ± 2.3e-06	–	617 ± 240	–	–	–	4.47e-05 ± 1.6e-05
AUAAAAGCGCCGGAACUACAGAAAUGUAGUUGACGAGGAGGAGGUUUAUCGAAUUUUCGGCGGAUGGCUCCAAA	0.000322 ± 4.9e-06	–	1850 ± 62	2.45e-05 ± 1.1e-05	8.36e-05 ± 8.2e-06	0.000182 ± 1.7e-05	0.000273 ± 1.9e-05
AUAAAAGCGCCAGAAUUACAGAAAUGUAGUUGUCGAGGAGGAGGUUUAUCGAAUUUUCGGCGGAUGCCUCCAAA	0.000109 ± 1.2e-05	–	2420 ± 740	–	3.18e-05 ± 8.4e-06	5.09e-05 ± 6.2e-06	8.92e-05 ± 7.1e-06
AUAAAAGCGCCUGAAAUACAGAAAUGUAGUUGACGAGGAGGAGGUUUAUCGAAUUUUCGGCGGAUGCCUCCAAA	0.00549 ± 0.00094	9.36e-05 ± 1.5e-05	2210 ± 520	–	0.00128 ± 0.00027	0.00417 ± 0.00091	0.00413 ± 0.00074
